In patent publication US6066502:
One block for each molecule: values may come before it.

Assays:
[1] = molecular target: human big endothelin-1 (human) (UniProt P05305)
[2] = molecular target: human big endothelin-1 (human) (UniProt P05305); remark: listed apart in the source
[3] = molecular target: human big endothelin-1 (human) (UniProt P05305); remark: listed apart in the source

Sequence of UniProt P05305 (P05305 53-90 limits assumed): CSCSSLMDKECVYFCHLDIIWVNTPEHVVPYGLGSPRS

Spec. activity [µU/mg] [1]: 15100 µU/mg
Molecule: endothelin converting enzyme (ECE-1) purified from FBHE bovine endothelial cells

volume-based activity of the secreted ECE (µunits/ml of cell culture medium) [2]: < 10
Molecule: secreted human ECE (extracellular domain of human ECE fused to the signal peptide of human t-PA) (enzyme)

Spec. activity (µU/mg protein) (µU/mg protein) [3]: 12000
B1: recombinant membrane-bound human ECE (complete human ECE expressed from pcDNA3neo in mammalian cells, colony 38) (enzyme)
chain: MSTYKRATLDEEDLVDSLSEGDAYPNGLQVNFHSPRSGQRCWAARTQVEKRLVVLVVLLAAGLVACLAALGIQYQTRSPSVCLSEACVSVTSSILSSMDPTVDPCHDFFSYACGGWIKANPVPDGHSRWGTFSNLWEHNQAIIKHLLENSTASVSEAERKAQVYYRACMNETRIEELRAKPLMELIERLGGWNITGPWAKDNFQDTLQVVTAHYRTSPFFSVYVSADSKNSNSNVIQVDQSGLGLPSRDYYLNKTENEKVLTGYLNYMVQLGKLLGGGDEEAIRPQMQQILDFETALANITIPQEKRRDEELIYHKVTAAELQTLAPAINWLPFLNTIFYPVEINESEPIVVYDKEYLEQISTLINTTDRCLLNNYMIWNLVRKTSSFLDQRFQDADEKFMEVMYGTKKTCLPRWKFCVSDTENNLGFALGPMFVKATFAEDSKSIATEIILEIKKAFEESLSTLKWMDEETRKSAKEKADAIYNMIGYPNFIMDPKELDKVFNDYTAVPDLYFENAMRFFNFSWRVTADQLRKAPNRDQWSMTPPMVNAYYSPTKNEIVFPAGILQAPFYTRSSPKALNFGGIGVVVGHELTHAFDDQGREYDKDGNLRPWWKNSSVEAFKRQTECMVEQYSNYSVNGEPVNGRHTLGENIADNGGLKAAYRAYQNWVKKNGAEHSLPTLGLTNNQLFFLGFAQVWCSVRTPESSHEGLITDPHSPSRFRVIGSLSNSKEFSEHFRCPPGSPMNPPHKCEVW
